How the values were obtained:
[1] = molecular target: T1, TerR43-138 (Aspergillus terreus SBUG844, UniProt Q0D1P5 43-138); test: SPR; molar ratio 0.85; SPR (Biacore 2000, SA-coated CM3 chip): 10 mM HEPES pH 7.4, 150 mM NaCl, 0.005% P20, 5 mM beta-mercaptoethanol, 1 uM ZnCl2, 25 C; protein 12.5-6400 nM; 1:1 model with mass transport; conditions: protein: recombinant; (pET-29a; mass used 10218 Da); label: biotin on one strand; 18 bp duplex
T1 sequence: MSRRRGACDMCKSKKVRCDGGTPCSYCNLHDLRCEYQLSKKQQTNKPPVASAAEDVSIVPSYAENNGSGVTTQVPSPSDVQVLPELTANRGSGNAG

[2] = molecular target: T2, TerR35-138 (Aspergillus terreus SBUG844, UniProt Q0D1P5 35-138); test: SPR; molar ratio 1.62; SPR (Biacore 2000, SA-coated CM3 chip): 10 mM HEPES pH 7.4, 150 mM NaCl, 0.005% P20, 5 mM beta-mercaptoethanol, 1 uM ZnCl2, 25 C; protein 12.5-6400 nM; 1:1 model with mass transport; conditions: protein: recombinant; (pET-29a; theoretical mass 11.35 kDa); label: biotin on one strand; 18 bp duplex
T2 sequence: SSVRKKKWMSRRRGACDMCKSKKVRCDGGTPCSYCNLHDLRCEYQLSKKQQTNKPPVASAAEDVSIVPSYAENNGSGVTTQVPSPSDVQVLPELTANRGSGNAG

[3] = molecular target: T1, TerR43-138; test: SPR; molar ratio 0.95; SPR (Biacore 2000, SA-coated CM3 chip): 10 mM HEPES pH 7.4, 150 mM NaCl, 0.005% P20, 5 mM beta-mercaptoethanol, 1 uM ZnCl2, 25 C; protein 12.5-6400 nM; 1:1 model with mass transport; conditions: protein: recombinant; (pET-29a; mass used 10218 Da); label: biotin on one strand; 18 bp duplex
[4] = molecular target: T2, TerR35-138; test: SPR; molar ratio 1.38; SPR (Biacore 2000, SA-coated CM3 chip): 10 mM HEPES pH 7.4, 150 mM NaCl, 0.005% P20, 5 mM beta-mercaptoethanol, 1 uM ZnCl2, 25 C; protein 12.5-6400 nM; 1:1 model with mass transport; conditions: protein: recombinant; (pET-29a; theoretical mass 11.35 kDa); label: biotin on one strand; 18 bp duplex
[5] = molecular target: T1, TerR43-138; test: SPR; molar ratio 1.04; SPR (Biacore 2000, SA-coated CM3 chip): 10 mM HEPES pH 7.4, 150 mM NaCl, 0.005% P20, 5 mM beta-mercaptoethanol, 1 uM ZnCl2, 25 C; protein 12.5-6400 nM; 1:1 model with mass transport; conditions: protein: recombinant; (pET-29a; mass used 10218 Da); label: biotin on one strand; 18 bp duplex
[6] = molecular target: T2, TerR35-138; test: SPR; molar ratio 0.92; SPR (Biacore 2000, SA-coated CM3 chip): 10 mM HEPES pH 7.4, 150 mM NaCl, 0.005% P20, 5 mM beta-mercaptoethanol, 1 uM ZnCl2, 25 C; protein 12.5-6400 nM; 1:1 model with mass transport; conditions: protein: recombinant; (pET-29a; theoretical mass 11.35 kDa); label: biotin on one strand; 18 bp duplex
[7] = molecular target: T2, TerR35-138; test: SPR; molar ratio 1.12; SPR (Biacore 2000, SA-coated CM3 chip): 10 mM HEPES pH 7.4, 150 mM NaCl, 0.005% P20, 5 mM beta-mercaptoethanol, 1 uM ZnCl2, 25 C; protein 12.5-6400 nM; 1:1 model with mass transport; conditions: protein: recombinant; (pET-29a; theoretical mass 11.35 kDa); label: biotin on one strand; 18 bp duplex
[8] = molecular target: T2, TerR35-138; test: SPR; molar ratio 1.74; SPR (Biacore 2000, SA-coated CM3 chip): 10 mM HEPES pH 7.4, 150 mM NaCl, 0.005% P20, 5 mM beta-mercaptoethanol, 1 uM ZnCl2, 25 C; protein 12.5-6400 nM; 1:1 model with mass transport; conditions: protein: recombinant; (pET-29a; theoretical mass 11.35 kDa); label: biotin on one strand; 18 bp duplex
[9] = molecular target: T2, TerR35-138; test: SPR; molar ratio 1.93; SPR (Biacore 2000, SA-coated CM3 chip): 10 mM HEPES pH 7.4, 150 mM NaCl, 0.005% P20, 5 mM beta-mercaptoethanol, 1 uM ZnCl2, 25 C; protein 12.5-6400 nM; 1:1 model with mass transport; conditions: protein: recombinant; (pET-29a; theoretical mass 11.35 kDa); label: biotin on one strand; 18 bp duplex
[10] = molecular target: T1, TerR43-138; test: SPR; molar ratio 1.06; SPR (Biacore 2000, SA-coated CM3 chip): 10 mM HEPES pH 7.4, 150 mM NaCl, 0.005% P20, 5 mM beta-mercaptoethanol, 1 uM ZnCl2, 25 C; protein 12.5-6400 nM; 1:1 model with mass transport; conditions: protein: recombinant; (pET-29a; mass used 10218 Da); label: biotin on one strand; 18 bp duplex
[11] = molecular target: T2, TerR35-138; test: SPR; molar ratio 1.17; SPR (Biacore 2000, SA-coated CM3 chip): 10 mM HEPES pH 7.4, 150 mM NaCl, 0.005% P20, 5 mM beta-mercaptoethanol, 1 uM ZnCl2, 25 C; protein 12.5-6400 nM; 1:1 model with mass transport; conditions: protein: recombinant; (pET-29a; theoretical mass 11.35 kDa); label: biotin on one strand; 18 bp duplex
[12] = molecular target: T1, TerR43-138; test: SPR; molar ratio 0.88; SPR (Biacore 2000, SA-coated CM3 chip): 10 mM HEPES pH 7.4, 150 mM NaCl, 0.005% P20, 5 mM beta-mercaptoethanol, 1 uM ZnCl2, 25 C; protein 12.5-6400 nM; 1:1 model with mass transport; conditions: protein: recombinant; (pET-29a; mass used 10218 Da); label: biotin on one strand; 18 bp duplex
[13] = molecular target: T2, TerR35-138; test: SPR; molar ratio 1.14; SPR (Biacore 2000, SA-coated CM3 chip): 10 mM HEPES pH 7.4, 150 mM NaCl, 0.005% P20, 5 mM beta-mercaptoethanol, 1 uM ZnCl2, 25 C; protein 12.5-6400 nM; 1:1 model with mass transport; conditions: protein: recombinant; (pET-29a; theoretical mass 11.35 kDa); label: biotin on one strand; 18 bp duplex
[14] = molecular target: T1, TerR43-138; test: SPR; molar ratio 0.91; SPR (Biacore 2000, SA-coated CM3 chip): 10 mM HEPES pH 7.4, 150 mM NaCl, 0.005% P20, 5 mM beta-mercaptoethanol, 1 uM ZnCl2, 25 C; protein 12.5-6400 nM; 1:1 model with mass transport; conditions: protein: recombinant; (pET-29a; mass used 10218 Da); label: biotin on one strand; 18 bp duplex
[15] = molecular target: T2, TerR35-138; test: SPR; molar ratio 1.25; SPR (Biacore 2000, SA-coated CM3 chip): 10 mM HEPES pH 7.4, 150 mM NaCl, 0.005% P20, 5 mM beta-mercaptoethanol, 1 uM ZnCl2, 25 C; protein 12.5-6400 nM; 1:1 model with mass transport; conditions: protein: recombinant; (pET-29a; theoretical mass 11.35 kDa); label: biotin on one strand; 18 bp duplex
[16] = molecular target: T2, TerR35-138; test: SPR; molar ratio 1.87; SPR (Biacore 2000, SA-coated CM3 chip): 10 mM HEPES pH 7.4, 150 mM NaCl, 0.005% P20, 5 mM beta-mercaptoethanol, 1 uM ZnCl2, 25 C; protein 12.5-6400 nM; 1:1 model with mass transport; conditions: protein: recombinant; (pET-29a; theoretical mass 11.35 kDa); label: biotin on one strand; 18 bp duplex
[17] = molecular target: T2, TerR35-138; test: SPR; molar ratio 1.19; SPR (Biacore 2000, SA-coated CM3 chip): 10 mM HEPES pH 7.4, 150 mM NaCl, 0.005% P20, 5 mM beta-mercaptoethanol, 1 uM ZnCl2, 25 C; protein 12.5-6400 nM; 1:1 model with mass transport; conditions: protein: recombinant; (pET-29a; theoretical mass 11.35 kDa); label: biotin on one strand; 18 bp duplex
[18] = molecular target: T2, TerR35-138; test: SPR; molar ratio 0.95; SPR (Biacore 2000, SA-coated CM3 chip): 10 mM HEPES pH 7.4, 150 mM NaCl, 0.005% P20, 5 mM beta-mercaptoethanol, 1 uM ZnCl2, 25 C; protein 12.5-6400 nM; 1:1 model with mass transport; conditions: protein: recombinant; (pET-29a; theoretical mass 11.35 kDa); label: biotin on one strand; 18 bp duplex
[19] = molecular target: T1, TerR43-138; test: SPR; molar ratio 0.92; SPR (Biacore 2000, SA-coated CM3 chip): 10 mM HEPES pH 7.4, 150 mM NaCl, 0.005% P20, 5 mM beta-mercaptoethanol, 1 uM ZnCl2, 25 C; protein 12.5-6400 nM; 1:1 model with mass transport; conditions: protein: recombinant; (pET-29a; mass used 10218 Da); label: biotin on one strand; 18 bp duplex
[20] = molecular target: T2, TerR35-138; test: SPR; molar ratio 1.51; SPR (Biacore 2000, SA-coated CM3 chip): 10 mM HEPES pH 7.4, 150 mM NaCl, 0.005% P20, 5 mM beta-mercaptoethanol, 1 uM ZnCl2, 25 C; protein 12.5-6400 nM; 1:1 model with mass transport; conditions: protein: recombinant; (pET-29a; theoretical mass 11.35 kDa); label: biotin on one strand; 18 bp duplex

B1: BS6 (dsDNA)
DNA 1: CTCTCGGAAACTCGGAAA
DNA 2: TTTCCGAGTTTCCGAGAG
Kd [1]: 2050 ± 90 nM | Kd [2]: 150 ± 1 nM

B2: BS4m1 (TT before 5'-CGG to GG) (dsDNA)
DNA 1: TGGGCGGCAATACGGACT
DNA 2: AGTCCGTATTGCCGCCCA
Kd [3]: 9300 ± 1000 nM | Kd [4]: 429 ± 2 nM

B3: BS2 (dsDNA)
DNA 1: TTATCGGACTTTCGGATT
DNA 2: AATCCGAAAGTCCGATAA
Kd [5]: 3730 ± 30 nM | Kd [2]: 536 ± 3 nM

B4: BS7m (second CGG half-site mutated) (dsDNA)
DNA 1: ACTTCGGCTATCCAATTA
DNA 2: TAATTGGATAGCCGAAGT
Kd [6]: 25.3 ± 0.2 nM

B5: BS1 (dsDNA)
DNA 1: GAGTCGGCATTACGGCGG
DNA 2: CCGCCGTAATGCCGACTC
Kd [7]: 527 ± 3 nM

B6: BS3 (dsDNA)
DNA 1: GAGACGGAAACTCGGGTT
DNA 2: AACCCGAGTTTCCGTCTC
Kd [8]: 676 ± 3 nM

B7: BS2m1 (5'-CGG to CAA) (dsDNA)
DNA 1: TTATCAAACTTTCGGATT
DNA 2: AATCCGAAAGTTTGATAA
Kd [9]: 5780 ± 60 nM

B8: BS8 (dsDNA)
DNA 1: CGGGCGGTTAGGCGGCAT
DNA 2: ATGCCGCCTAACCGCCCG
Kd [10]: 17200 ± 500 nM | Kd [11]: 286 ± 2 nM

B9: BS4 (dsDNA)
DNA 1: TCTTCGGCAATACGGACT
DNA 2: AGTCCGTATTGCCGAAGA
Kd [12]: 1070 ± 60 nM | Kd [13]: 65.6 ± 0.6 nM

B10: BS7 (dsDNA)
DNA 1: ACTTCGGCTATCCGGTTA
DNA 2: TAACCGGATAGCCGAAGT
Kd [14]: 591 ± 2 nM | Kd [15]: 26.5 ± 0.3 nM

B11: BS5 (dsDNA)
DNA 1: GGGGCGGCTCCTCGGTAC
DNA 2: GTACCGAGGAGCCGCCCC
Kd [16]: 1530 ± 60 nM

B12: BS4m2 (C directly after 5'-CGG to G) (dsDNA)
DNA 1: TCTTCGGGAATACGGACT
DNA 2: AGTCCGTATTCCCGAAGA
Kd [12]: 1370 ± 50 nM | Kd [17]: 155 ± 1 nM

B13: BS2m2 (3'-CGG to CAA) (dsDNA)
DNA 1: TTATCGGACTTTCAAATT
DNA 2: AATTTGAAAGTCCGATAA
Kd [18]: 363 ± 2 nM

B14: BS9 (dsDNA)
DNA 1: GCTTCGGTAATTCGGTAA
DNA 2: TTACCGAATTACCGAAGC
Kd [19]: 820 ± 4 nM | Kd [20]: 41 ± 0.4 nM
